Experiment [1] addresses soluble single-chain I-A^d-OVA from insect (SF9) cells (SSC1 gene in pMBSC1.2) (mouse (I-A^d); chicken (OVA peptide)). Kind of experiment: I-A^d sandwich ELISA (capture M5/114, detection biotinylated AMS-32.1), supernatant of virus clone C6.
Experiment [2] shares this target. As to the kind of experiment: I-A^d sandwich ELISA (capture M5/114, detection biotinylated AMS-32.1), cotransfection supernatant undiluted. (In general: ELISA stands for enzyme-linked immunosorbent assay.)
Experiment [3] has as its target soluble single-chain I-A^d-OVA with EE antibody tag (SCE1) secreted by transfected NSO cells (mouse (I-A^d); chicken (OVA peptide)). Kind of experiment: I-A^d sandwich ELISA (capture M5/114, detection biotinylated AMS-32.1), undiluted supernatant of E10 (SCE1 transfectant).
The target in experiment [4] is soluble single-chain I-A^d-OVA from insect (SF9) cells (SSC1 gene in pMBSC1.2) (mouse (I-A^d); chicken (OVA peptide)). Kind of experiment: I-A^d sandwich ELISA (capture M5/114, detection biotinylated AMS-32.1), cotransfection supernatant 1:8.
The target in experiment [5] is membrane-bound single-chain I-A^d-OVA (SCT1) on transfected NSO cells (mouse (I-A^d); chicken (OVA peptide)). Kind of experiment: flow cytometry, FITC-conjugated AMS 32.1 (1:100) on T2 (SCT1-transfectant). Background: Flow cytometry measures light scatter and fluorescence of single cells or particles in a stream.
The target in experiment [6] is soluble single-chain I-A^d-OVA from insect (SF9) cells (SSC1 gene in pMBSC1.2) (mouse (I-A^d); chicken (OVA peptide)). Kind of experiment: I-A^d sandwich ELISA (capture M5/114, detection biotinylated AMS-32.1), cotransfection supernatant 1:2.
Experiment [7] has the same target. As to the kind of experiment: I-A^d sandwich ELISA (capture M5/114, detection biotinylated AMS-32.1), cotransfection supernatant 1:4.
Experiment [8] has the same target. As to the kind of experiment: I-A^d sandwich ELISA (capture M5/114, detection biotinylated AMS-32.1), sc I-A^d-OVA from insect cell culture (positive control).
Experiment [9] has the same target. As to the kind of experiment: I-A^d sandwich ELISA (capture M5/114, detection biotinylated AMS-32.1), supernatant of virus clone F8.
The target of experiment [10] is membrane-bound single-chain I-A^d-OVA (SCT1) on transfected NSO cells (mouse (I-A^d); chicken (OVA peptide)). Kind of experiment: flow cytometry, FITC-conjugated AMS 32.1 (1:100) on T6 (SCT1-transfectant).
For experiment [11] the target is unchanged. Kind of experiment: flow cytometry, FITC-conjugated AMS 32.1 (1:100) on T12 (SCT1-transfectant).
The target of experiment [12] is soluble single-chain I-A^d-OVA with EE antibody tag (SCE1) secreted by transfected NSO cells (mouse (I-A^d); chicken (OVA peptide)). As to the kind of experiment: I-A^d sandwich ELISA (capture M5/114, detection biotinylated AMS-32.1), undiluted supernatant of E11 (SCE1 transfectant).
For experiment [13], the target named is Neuron Specific Enolase (NSE) in supernatant of SF9 cells infected with a recombinant Baculovirus. Kind of experiment: I-A^d sandwich ELISA (capture M5/114, detection biotinylated AMS-32.1), NSE baculovirus supernatant as negative control.
In experiment [14] the target is full length I-A^d/OVA 323-339 MHC class II fusion complex (pJRS165.1) expressed on NSO cells (mouse; chicken) (UniProt P04228). As to the kind of experiment: flow cytometry, FITC-conjugated anti-IA^k control (1:100) on clone NSO/IA^d/OVA.B4.
The target is the same in experiment [15]. As to the kind of experiment: flow cytometry, FITC-conjugated anti-IA^k control (1:100) on clone NSO/IA^d/OVA.B2.
For experiment [16] the target is unchanged. Kind of experiment: flow cytometry, FITC-conjugated anti-IA^k control (1:100) on clone NSO/IA^d/OVA.A4.
For experiment [17] the target is unchanged. As to the kind of experiment: flow cytometry, FITC-conjugated anti-IA^k control (1:100) on clone NSO/IA^d/OVA.B5.
The target of experiment [18] is murine Class II MHC molecule I-A^d on A20.1-11 cells (mouse) (UniProt P04228). Kind of experiment: flow cytometry, FITC-conjugated anti-IA^k control (1:100) on A20.1 cells (+ control).
The target in experiment [19] is T cell receptor of the murine T cell hybridoma DO11.10, specific for OVA 323-339 presented by I-A^d. Kind of experiment: cell-based or functional assay.
Experiment [20] has the same target. As to the kind of experiment: cell-based or functional assay. This is another data set of the same source.
Experiment [21] concerns the target membrane-bound single-chain I-A^d-OVA (SCT1) on transfected NSO cells (mouse (I-A^d); chicken (OVA peptide)). Kind of experiment: flow cytometry, FITC-conjugated 10-3.6 control (1:100) on T6 (SCT1-transfectant).
For experiment [22] the target is unchanged. As to the kind of experiment: flow cytometry, FITC-conjugated 10-3.6 control (1:100) on T12 (SCT1-transfectant).
The target is the same in experiment [23]. Kind of experiment: flow cytometry, FITC-conjugated 10-3.6 control (1:100) on T2 (SCT1-transfectant).

The source of these data is patent EP0997477B1.

Read-outs that look alike come from different tables or passages of the source.

UniProt P04228, sequence (P04228 24-256, chain 1 of 2): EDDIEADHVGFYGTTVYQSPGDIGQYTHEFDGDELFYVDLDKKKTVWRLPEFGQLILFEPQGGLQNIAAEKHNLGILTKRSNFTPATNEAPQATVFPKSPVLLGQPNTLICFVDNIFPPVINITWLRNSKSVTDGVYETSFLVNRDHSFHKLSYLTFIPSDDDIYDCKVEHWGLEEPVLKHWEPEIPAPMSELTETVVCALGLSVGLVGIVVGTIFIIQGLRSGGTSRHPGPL
UniProt P04228, sequence (P01921 28-265, chain 2 of 2, further chain): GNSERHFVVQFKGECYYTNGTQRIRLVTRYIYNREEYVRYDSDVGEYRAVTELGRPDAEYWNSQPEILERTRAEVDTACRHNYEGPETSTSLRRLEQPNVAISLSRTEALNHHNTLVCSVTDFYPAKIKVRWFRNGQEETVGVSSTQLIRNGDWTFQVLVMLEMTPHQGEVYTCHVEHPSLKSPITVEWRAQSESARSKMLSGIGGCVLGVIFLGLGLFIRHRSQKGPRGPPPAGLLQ

As to “AMS-32.1 anti-IA^d (Pharmingen part number 06032D) (antibody)”, the Absorbance (405 nm) in experiment [1] was 1.56 absorbance; in experiment [2], 0.857 absorbance; in experiment [3], 0.781 absorbance; in experiment [4], 0.165 absorbance; in experiment [6], 0.524 absorbance; in [7], 0.305 absorbance. Also, the Absorbance (405 nm) in experiment [8] came to 2.44 absorbance; in [9], 1.45 absorbance; in experiment [12], 0.96 absorbance; in [13] it was 0.098 absorbance. Besides, the Mean Fluorescence (mean fluorescence) in [5] amounted to 613; in experiment [10] it was 418; in [11], 911.
Regarding “FITC-conjugated anti-IA^k antibody (Pharmingen), isotype matched irrelevant antibody”, the peak channel fluorescence in experiment [14] amounted to 11 peak channel; in experiment [15], 14 peak channel; in [16], 34 peak channel; in experiment [17], 10 peak channel; in experiment [18], 5 peak channel.
As to “OVA 323-339 peptide presented by I-A^d on A20 cells (from UniProt P04228 24-256; P01921 28-265) (peptide-MHC)”, the IL-2 ELISA result (Absorbance); A20+OVA 323-339 peptide (positive control) in experiment [19] stood at 1.45 absorbance; in experiment [20], 1.33 absorbance.
Turning to “isotype matched FITC-conjugated anti-I-A^k antibody, 10-3.6 (PharMingen)”, the Mean Fluorescence (mean fluorescence) in [21] is 45.1; in experiment [22], 45.9; in experiment [23], 22.
“membrane-bound single-chain I-A^d-OVA (SCT1) on transfected NSO cells (peptide-MHC)”: the IL-2 ELISA result (Absorbance); antigen presenting cell T12 (SCT1 transfectant) in [19] is 1.03 absorbance. Also, in [20], the IL-2 ELISA result (Absorbance); antigen presenting cell T2 (SCT1 transfectant) turned out to be 0.758 absorbance and the IL-2 ELISA result (Absorbance); antigen presenting cell T6 (SCT1 transfectant) was determined as 0.307 absorbance.
Take “soluble single-chain I-A^d-OVA from insect (SF9) cells (SSC1 gene in pMBSC1.2) (peptide-MHC)”: in experiment [20], the IL-2 concentration in DO11 super; immobilized sc IA^d-OVA 78 ng/well came out at 45 U/ml, the IL-2 concentration in DO11 super; immobilized sc IA^d-OVA 156 ng/well turned out to be 100 U/ml, the IL-2 concentration in DO11 super; immobilized sc IA^d-OVA 312 ng/well was 109 U/ml and the IL-2 concentration in DO11 super; immobilized sc IA^d-OVA 625 ng/well turned out to be 116 U/ml. Moreover, in experiment [20], the IL-2 concentration in DO11 super; immobilized sc IA^d-OVA 1250 ng/well is 126 U/ml, the IL-2 concentration in DO11 super; immobilized sc IA^d-OVA 2500 ng/well was determined as 143 U/ml, the IL-2 concentration in DO11 super; immobilized scIA^d-OVA 39 ng/well (extended dilution) worked out at 0 U/ml and the IL-2 concentration in DO11 super; immobilized scIA^d-OVA 78 ng/well (extended dilution) was 17 U/ml. In [20], the IL-2 concentration in DO11 super; immobilized scIA^d-OVA 156 ng/well (extended dilution) turned out to be 24 U/ml, the IL-2 concentration in DO11 super; immobilized scIA^d-OVA 312 ng/well (extended dilution) turned out to be 35 U/ml, the IL-2 concentration in DO11 super; immobilized scIA^d-OVA 625 ng/well (extended dilution) was found to be 38 U/ml and the IL-4 concentration in DO11 super; immobilized sc IA^d-OVA 78 ng/well was 7 U/ml. In [20], this substance returned an IL-4 concentration in DO11 super; immobilized sc IA^d-OVA 156 ng/well of 10 U/ml, an IL-4 concentration in DO11 super; immobilized sc IA^d-OVA 312 ng/well of 16 U/ml, an IL-4 concentration in DO11 super; immobilized sc IA^d-OVA 625 ng/well of 15 U/ml and an IL-4 concentration in DO11 super; immobilized sc IA^d-OVA 1250 ng/well of 20 U/ml. In experiment [20], the IL-4 concentration in DO11 super; immobilized sc IA^d-OVA 2500 ng/well amounted to 23 U/ml, the IL-r [IL-4] concentration in DO11 super; immobilized scIA^d-OVA 39 ng/well (extended dilution) was 0 U/ml, the IL-r [IL-4] concentration in DO11 super; immobilized scIA^d-OVA 78 ng/well (extended dilution) was found to be 0.8 U/ml and the IL-r [IL-4] concentration in DO11 super; immobilized scIA^d-OVA 156 ng/well (extended dilution) was 0.9 U/ml. In experiment [20], this substance returned an IL-r [IL-4] concentration in DO11 super; immobilized scIA^d-OVA 312 ng/well (extended dilution) of 1.5 U/ml and an IL-r [IL-4] concentration in DO11 super; immobilized scIA^d-OVA 625 ng/well (extended dilution) of 2 U/ml.
